Data on one molecule can be found in US20190062727A1 (University of Texas, published 2019).

In this test the target is T1, Rlip (RALBP1, RLIP76), endogenous protein of mouse embryonic fibroblasts and mouse liver (mouse, UniProt Q62172 2-648).
T1 construct: Endogenous protein, detected with a rabbit monoclonal anti-Rlip antibody from Abcam
T1 sequence (looked up): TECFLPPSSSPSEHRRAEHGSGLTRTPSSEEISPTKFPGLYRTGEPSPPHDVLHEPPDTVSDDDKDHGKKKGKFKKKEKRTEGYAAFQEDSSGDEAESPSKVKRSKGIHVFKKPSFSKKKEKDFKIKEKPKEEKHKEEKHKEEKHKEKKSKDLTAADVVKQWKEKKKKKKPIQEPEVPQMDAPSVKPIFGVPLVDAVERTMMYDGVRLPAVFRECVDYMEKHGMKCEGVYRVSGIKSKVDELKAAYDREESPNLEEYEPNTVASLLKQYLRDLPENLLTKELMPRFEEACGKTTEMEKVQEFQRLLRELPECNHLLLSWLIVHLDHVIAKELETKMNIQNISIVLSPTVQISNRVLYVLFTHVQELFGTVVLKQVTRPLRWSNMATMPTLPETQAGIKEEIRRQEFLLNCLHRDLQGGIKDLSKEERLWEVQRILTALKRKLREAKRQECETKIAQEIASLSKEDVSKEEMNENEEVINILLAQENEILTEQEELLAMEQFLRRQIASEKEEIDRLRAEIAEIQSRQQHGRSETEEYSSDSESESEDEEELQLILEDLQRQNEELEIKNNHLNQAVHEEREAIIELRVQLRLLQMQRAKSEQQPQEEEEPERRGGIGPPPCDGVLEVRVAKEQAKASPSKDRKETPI
Kind of test: co-immunoprecipitation from whole-cell homogenates of wt, p53+/- and p53-/- MEFs. An excerpt:
Binding interactions of HSF1, Rlip and p53 in wt, p53^{-/-} MEFs without or with Rlip depletion using R508 were studied by co-immunoprecipitation using protein A/G PLUS-Agarose immunoprecipitation reagent sc-2003 from Santa Cruz Biotechnology (Columbus, Ohio) according to the manufacture's protocol using whole-cell homogenates of wild-type, p53^{-/-} or p53^{+/-} MEFs. Primary anti-HSF1 rabbit monoclonal antibody (D3L8I) and anti-p53 mouse monoclonal antibody was from Cell Signaling Technology (Danvers, Mass.), and rabbit monoclonal anti-Rlip antibody was from Abcam (Cambridge, Mass.). The specificity of primary antibodies was tested using MEFs from either p53^{-/-} or Rlip^{-/-} MEFs. The corresponding probes of anti-rabbit PLUS and anti-mouse MINUS were provided in the kit and used per the manufacturer's instructions. wt, p53^{-/-} and […]. […] Slides were visualized by fluorescence microscopy using an Olympus BX50 microscope, and photomicrographs were taken using a 40× objective.
The 4-hydroxynonenal (4HNE) and8-OH-deoxyguanosine (8OHdG) levels were measured in liver homogenate using Oxiselect kits from Cell Biolabs, San Diego, Calif. by procedures described in Methods and the results are shown in FIG. 2A and FIG. 2B, respectively. […]

B1: p53 (TP53), endogenous protein of mouse embryonic fibroblasts and mouse liver (other, UniProt P02340 1-390, looked up)
chain: MTAMEESQSDISLELPLSQETFSGLWKLLPPEDILPSPHCMDDLLLPQDVEEFFEGPSEALRVSGAPAAQDPVTETPGPVAPAPATPWPLSSFVPSQKTYQGNYGFHLGFLQSGTAKSVMCTYSPPLNKLFCQLAKTCPVQLWVSATPPAGSRVRAMAIYKKSQHMTEVVRRCPHHERCSDGDGLAPPQHLIRVEGNLYPEYLEDRQTFRHSVVVPYEPPEAGSEYTTIHYKYMCNSSCMGGMNRRPILTIITLEDSSGNLLGRDSFEVRVCACPGRDRRTEEENFRKKEVLCPELPPGSAKRALPTCTSASPPQKKKPLDGEYFTLKIRGRKRFEMFRELNEALELKDAHATEESGDSRAHSSYLKTKKGQSTSRHKKTMVKKVGPDSD
notes: Endogenous protein, detected with a mouse monoclonal anti-p53 antibody from Cell Signaling Technology
Consider B1, for which the binding result is reported as “binds”.
